Reference: the nanobody polyreactivity screen of Harvey et al. (2022)

experiment: yeast display, Sf9 membrane polyspecificity reagent, FACS + sequencing; frameworks hold sequencing errors
Method in brief: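 Galactose induction of a Saccharomyces cerevisiae BJ5465 synthetic nanobody display library ran 36–48 hours. The cells were then stained for 1 hour at 4 °C with 10% biotinylated, detergent-solubilized Sf9 membrane reagent, pulled down on streptavidin microbeads and FACS-sorted into low and high (top ~1%) gates on expression and reagent-binding fluorescence. Labels for polyreactivity follow the gate of origin.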

Row | Sequence | polyreactivity (PSR sort gate)
1 | QVQLVESGGGLVQAGGSLRLSCAASGFTFPRYVMGWYRQAPGKEREFVAAITFSGGSTYYADSVKGRFTNSRDNAKNTVYLQMNSLKPEDTAVYYCAAGASLWRLGLKMGYWGQGTQVTVSS | low polyreactivity
2 | QVQLVESGGGLVQAGGSLRLSCAASGFTFPTYAMGWYRQAPGKERELVAAISTSGARTYYADSVKGRFTISRDNAKNTVYLQMNSLKPEDTAVYYCAVGSIYTIGFRKGYRFDYWGQGTQVTVSS | high polyreactivity
3 | QVQLVESGGGLVQAGGSLRLSCAASGFTFPVYAMGWYRQATGKVRELVAAISRRGGRTYYADSVKGRFTISRDNAKNTVSLQMNSLKPEDTAVYYCNKGETLYGSVPYDYWGQGTQVTVSS | high polyreactivity
4 | QVQLVESGGGLVQAGGSLRLSCAASGFTFPVYTMGWYSQAPGKERELVAAISTAGAGTYYADSVKGRFTISRDNAKNTVYLQMNSLKPEDTAVYYCAAYKRGRPEMDYWGQGTQVTVSS | high polyreactivity
5 | QVQLVESGGGLVQAGGSLRLSCAASGFTFPWYAMGWYRQAPGKERELVAAISIGTGRTYYADSVKGRFTISRDNAKNTVYLQMNSLKPEDTAVYYCAAEDQYYEDGYWGQGTQVTVSS | high polyreactivity
6 | QVQLVESGGGLVQAGGSLRLSCAASGFTFPWYAMGWYRQAPGKERELVAALTGSGGSTDYADSVKGRFTISRDNAKNTVYLQMNSLKPEDTAVYYCNAGKTIDYRDGVGYDHWGQGTQVTVSS | low polyreactivity
7 | QVQLVESGGGLVQAGGSLRLSCAASGFTFPWYAMGWYSQAPGKERELVAAITSGGGSTYYADSVKGRFTISRDYAKNTVYLQMNSLKPEDTAVYYCAAVPALKWYGYEYWGQGTQVTVSS | high polyreactivity
8 | QVQLVESGGGLVQAGGSLRLSCAASGFTFPYNAMGWYRQAPVTERELVAAMSRGGGRTYYADSVKGRFTISRDNAKNTVNLQMNSLKPEDTAVYYCAKSPGQDTPYPYGYWGQGTQETVSS | high polyreactivity
9 | QVQLVESGGGLVQAGGSLRLSCAASGFTFPYNGMGWYRQAPGKERELVASISWSGASTYYADSVKGRFTISRDNAKNTVYLQMNSLKPEDTAVYYCASDPGYYSWGSSQDDYWGQGTQVTVSS | low polyreactivity
10 | QVQLVESGGGLVQAGGSLRLSCAASGFTFPYYAMGWYRQAPGKERELVATIRSGGSTYYADSVKGRFTISRDNAKNTVYLQMNSLKPEDTAVYYCAKYQVLYSYDKYGYWGQGTQVTVSS | low polyreactivity
11 | QVQLVESGGGLVQAGGSLRLSCAASGFTFQGNVMGWYRQAPGKERELVAASTGGGGDTYSADSVKGRFTISRDNAKNTVYLQMNSLKPEDTAVYYCAAEVAPEWYWPWFFDYADGYWGQGTQVTLSS | high polyreactivity
12 | QVQLVESGGGLVQAGGSLRLSCAASGFTFQKNAMGWNRQAPGKERDLVARITRSDGSTYYADSVKGRFTISRDNAKNTVYLPMNSLKPEDTAVYYWAARYCRLGSSRGGYWGQCTQVTVSS | low polyreactivity
13 | QVQLVESGGGLVQAGGSLRLSCAASGFTFQRYTMGWYRQAPGKERELVAAISWSGGSTYYADSVKGRFTISRDNAKNSVYLQMNSLKPEDTAVYYCAAYRVIPYLSDYWGEGTQVTVSS | high polyreactivity
14 | QVQLVESGGGLVQAGGSLRLSCAASGFTFQSYAMGWYRQAPGKESELVAAISWSGGSTYYADSVKGRFTISRDNAKNTVYLEMNSLKPEDTAVYYCAADAPRSYRFGYWGQGTQVTVSS | high polyreactivity
15 | QVQLVESGGGLVQAGGSLRLSCAASGFTFQYNAMGWYRQAPGKERELVAAITWTGTSTYADSVKGRFTISRDNAKNTVYLQLNSLKPEDTAVYYCAARYYAPRWFSYDYWGQGTQVTVSS | low polyreactivity
16 | QVQLVESGGGLVQAGGSLRLSCAASGFTFQYYAMGWYRQAPGKERELVAAISWGGGSTYYADSVKGRFTISRDNAKNTVYLQMNSLKPEDTAVYYCNAYEYLSAGYDYWGQGTQVTVSS | low polyreactivity
17 | QVQLVESGGGLVQAGGSLRLSCAASGFTFQYYAMGWYRQAPGKERELVAAISWSGGSTYYADSVKGRFTISRDNAKNTVYLQMNSLKPEDTAVYYCAAAPYTYPLGFDYWGQGTQVTVSS | high polyreactivity
18 | QVQLVESGGGLVQAGGSLRLSCAASGFTFRAYAMGWYRQAPGKERELVAAISRSGTSTYYADSVKGRFTISRDNAKYTVYLQMNSLKPEDTAVYYCAARLGPYHYATKMYYWGQGTQVTVSS | high polyreactivity
19 | QVQLVESGGGLVQAGGSLRLSCAASGFTFRAYAMGWYRQAPGKERELVAAITYSGDRTYYADSVKGRFTISRDNAKNTVYLQMNSLKPEDTAVYYCAAYGAKVNRPGYYYWGQGTQVTVSS | high polyreactivity
20 | QVQLVESGGGLVQAGGSLRLSCAASGFTFRDYAMGWYRPAPGKERELVAAIDIGTTTYYADSVKGRFTISRDNAKNTVYLQMNSLKPEDSAVYYCNKGTNRSGGYDSWGQGTQVTVSS | low polyreactivity
21 | QVQLVESGGGLVQAGGSLRLSCAASGFTFRDYAMGWYRQAPGKERELVAVISDSGGRTYYADSVKGRFTISRDNAKNTVYLQMNSLKPEDTAVYYCAARGYRSGGGYNYWGQGTQVTVSS | high polyreactivity
22 | QVQLVESGGGLVQAGGSLRLSCAASGFTFRFYVMGWYRQAPGKERELVAAISSGGGSTYYADSVKGRFTISRDNAKNTVYLQMNSLKPEDTAVYYCNALKVSFLTITKYEYWGQGTQVTVSS | high polyreactivity

Row | Sequence | polyreactivity (PSR sort gate)
23 | QVQLVESGGGLVQAGGSLRLSCAASGFTFRGNAMGWYRQAPGKERELVAAITWNGGSTYYADSVKGRFTISRDNAKNTVYLQMNSLKPEDTAVYYCAAQYGKKRQPRFNYWGQGTQVTVSS | high polyreactivity
24 | QVQLVESGGGLVQAGGSLRLSCAASGFTFRGYAMGWYRQAPGIERELVATISRRAASTYYADTVKGRFTISRDNAKNTVYLLMNSLKPEDTAVYYCAKVNRYDDDRDGFGYWGHGTQVTVSS | high polyreactivity
25 | QVQLVESGGGLVQAGGSLRLSCAASGFTFRGYAMGWYRQAPGKERELVASITYRGGSTYYADSVKGRFTISRDNAKNTVYLQMNSLKPEDTADYYCNAGFGGRRRQDAFIGTSIYDYWGQGTQVTVSS | low polyreactivity
26 | QVQLVESGGGLVQAGGSLRLSCAASGFTFRHNVMGWYRQAPGKERELVATITWSGGRTSYADSVKGRFTISRDNAKNTVYLQMKSLKPEDTAVYYCAARFFSYSQYAYNYWGQGTQVTVSS | high polyreactivity
27 | QVQLVESGGGLVQAGGSLRLSCAASGFTFRIYAMGWYRQAPGKERELVAAITWSGGSTSYADSVKGRFTISRDNAKNTVYLQMNSLKPEDTAVYYCAAETKYSGAYPYDYWGQGTQVTVSS | high polyreactivity
28 | QVQLVESGGGLVQAGGSLRLSCAASGFTFRKYVMGWYRQAPGKERELVAGISRSGSRTYYADSVKGRFTISRDNAKNTVYLQMNSLKPEDTAVYYCAASRYGKNGKYHYWGQGTQVTVSS | high polyreactivity
29 | QVQLVESGGGLVQAGGSLRLSCAASGFTFRLNAMGWYRQAPGKERELVAAITRSGGNTYYADSVKGRFTISRDNAKNTVYLQMNSLKPEDTAVYYCAVRQLDRRSPKYNYWGQGTQVTVSS | high polyreactivity
30 | QVQLVESGGGLVQAGGSLRLSCAASGFTFRNNAMGWYRQAPGKDRELVAAITARGGSTYYADSVKGRFTISRDNAKNTVYLQMNSLKPEDTAVYYCATDDYPWGRHPWYAGYDSWGQGTQVTVSS | low polyreactivity
31 | QVQLVESGGGLVQAGGSLRLSCAASGFTFRNYAMGWYRKAPGKERELVATIDRGTTSTYYADSVKGRFTISRDNAKNTVYLQMNSLKPEDTAVYYCAARAWRYGYGYWGQGTQVTVSS | high polyreactivity
32 | QVQLVESGGGLVQAGGSLRLSCAASGFTFRQNAKGWYRQAPGKERELVAVITKSAGSTYYADSVKGRFTISRDNAKNTVYLQMNSLKPEDTAVFYCNKRQRFVSSFRRSQGIGWEDDYWGQGTQVTVSS | low polyreactivity
33 | QVQLVESGGGLVQAGGSLRLSCAASGFTFRQNAMGWYRQAPRKERELVAAISSGGRTKYADSVKGRFTISRDNANNTVYLHMNSLKPEDTALYYCAADKRVYTQLNDSWGQGTQVTVSS | high polyreactivity
34 | QVQLVESGGGLVQAGGSLRLSCAASGFTFRRNAMGWYRQAPGKEWEFVAAITGRGTGTYYADSVKGRFTISRDNAKNTVYLQMYILKPEDTAGYYCNDDPVRYLFNRYDYWGQGTQVTVSS | high polyreactivity
35 | QVQLVESGGGLVQAGGSLRLSCAASGFTFRRYAMGRYRQAPGKERELVAAISRSTGSTYYADSVKGRFSLSRDNAKNSVYLQMNSLKPEDTAVFYCNVAGSARVNTLVLSYEYWGQGSQVTVSS | high polyreactivity
36 | QVQLVESGGGLVQAGGSLRLSCAASGFTFRRYVMGWYRQAPGKERELVAAISSGGRTNYADSVKGRFTISRYNAKNTVYLQMNSLKPEDTAVYYCGYLDRYHHLRYWGQGTQVTVSS | high polyreactivity
37 | QVQLVESGGGLVQAGGSLRLSCAASGFTFRSNAMGWSRQAPGKERELVAAISYSGGDTYYADSVKGRFTISRDNAKNTVYLQMNSLKPEDTAVYYCAADDPASPLGEYWGQGTQVSVSS | low polyreactivity
38 | QVQLVESGGGLVQAGGSLRLSCAASGFTFRSYAMGLYRQAPGKEREFVAAINGRSGSTYADSVKGRFTISRDNAKNTVYLQMISLKPEDTAVYYCAARVRRGSTQAQFYYWGQGTQVTVSS | high polyreactivity
39 | QVQLVESGGGLVQAGGSLRLSCAASGFTFRSYTMGWYRQAPGKERELVASIRYGGGSTYYADSVKGRFTISRDNAKNTVYLQMNSLKPEDTAVYYCSAESAWTSPYDYWGQGTQVTVSS | high polyreactivity
40 | QVQLVESGGGLVQAGGSLRLSCAASGFTFRTNAMGWYRQAPGKEREFVATITRRGGSTYYADSVKGRFTISRDNAKKTVYLQLNSLKPEDTAVYYCNAVFSSQEYEYWGQGTQVTVSS | high polyreactivity
41 | QVQLVESGGGLVQAGGSLRLSCAASGFTFRVYAMGWYRQAPGKERELVASITWSGASTYYADSVKGRFTISRDNAKNTVYLQMNSLKPEDTAVYYCAAKYSDYQYGRYYYWGQGTQVTVSS | high polyreactivity
42 | QVQLVESGGGLVQAGGSLRLSCAASGFTFRWYAIGWYSQAPGKEREFVATISTRGGNTYYADSVKGRFTISRDNAKNTVYLQMNSLKPEDTAVYYSAAVGYAAYHRMDYWGQGTQVNVSS | high polyreactivity
43 | QVQLVESGGGLVQAGGSLRLSCAASGFTFRWYDMGWYRQAPGKERELVAAIDASDGSTYYADSVKGRFTISRDNAKNTVYLQMNSLKPEDTAVYYCAADSYYRYYWGQGTQVTVSS | high polyreactivity
